Test results: US20210009693A1 (MABSPACE BIOSCIENCES SUZHOU, published 2021)

Key:
[1] = target: T1, wild type human PD-L1-Fc protein (SEQ ID NO: 107) (human); assay: ELISA on captured PD-L1-Fc, as in Example 18A
T1 construct: Extracellular human PD-L1 (amino acid 19-238) with Fc fragment of human IgG1, expressed in 293T cells and used as culture supernatant; also called WT PD-L1; wild-type PD-L1

[2] = target: T2, human PD-L1-Fc mutant E58A (human); assay: ELISA on captured PD-L1-Fc, as in Example 18A
T2 construct: Position 58 counts on native human PD-L1 (NP_054862.1); also called E58A mutant

[3] = target: T3, Human PD-L1/CD274 with C-Fc Tag (hPD-L1-Fc) (human, UniProt Q9NZQ7 19-238); assay: blocking ELISA on coated hPD-L1-Fc; blocked ligand: biotinylated hPD-1-Fc-N297A
T3 construct: range 19-238; ACRO Biosystem PD1-H5258, made in HEK293; also called human PD-L1-Fc; not shown: Fc fragment of human IgG1 at C-terminus
Method: High-binding clear polystyrene 96 well plates (Nunc) were coated with 100 μl/well of coating solution consisting of 0.5 μg/ml hPD-L1-Fc overnight at 4° C. Then washed once on an automatic plate washer using washing buffer PBS+0.1% Tween 20 (Sigma). 200 μl of blocking buffer (PBS+1% BSA+1% normal goat serum+0.05% Tween-20) was added to each well and incubated for 2 hours at room temperature. Then add serial diluted antibodies (from 10 μg/ml to 0.0006 μg/ml) with dilution buffer (PBS+1% BSA+1% normal goat serum+0.01% Tween-20) and incubate for 1 hour at RT. The plates were then washed 3 times using the method described above. […] After the plates were washed 3 times, 100 μl/well of a solution of HRP conjugated Neutravidin antibody (Pierce) diluted in dilution buffer was then added to each well of the plate. After that the ELISA plates were allowed to incubate for 60 min at RT then plates were washed 3 times with 250 μl/well washing buffer. Finally, 100 μl/well of TMB was added to each well and reaction was terminated using 0.64M H₂SO₄. The plates were read on a Thermo Multiscan FC at 450 nM (see FIG. 4A).

[4] = target: T4, Recombinant Mouse PD-L1/CD274 Protein (mPD-L1-his) (mouse, UniProt Q9EP73 19-238); assay: ELISA, 20 ug/ml antibody on coated mouse PD-L1 (his-tagged per text, mPD-L1-Fc per sheet title)
T4 construct: range 19-238; ACRO Biosystem PD1-M5220; also called mouse PD-L1-his
Method: High-binding clear polystyrene 96 well plates (Nunc) were coated with 100 μl/well of 1 μg/ml mouse PD-L1-his in high pH coating buffer and incubated overnight at 4° C. Then plates were washed once on an automatic plate washer using washing buffer (PBS+0.1% Tween 20 (Sigma)). 200 μl of blocking buffer (PBS+1% BSA+1% normal goat serum+0.05% Tween-20) was added to each well and incubated for 2 hours at room temp. Then add 20 μg/ml purified hybridoma mouse antibodies in dilution buffer (PBS+1% BSA+1% normal goat serum+0.01% Tween-20) and incubate for 1 hour at RT. The plates were then washed 3 times with 250 μl/well washing buffer. 100 μl/well of a solution of HRP conjugated goat anti-mouse Fc antibody (Abcam) in dilution buffer was then added to each well of the plate. After that the ELISA plates were allowed to incubate for 60 min at RT then plates were washed 3 times with 250 μl/well washing buffer. Finally, 100 μl/well of TMB was added to each well and the reaction was terminated using 0.64M H₂SO₄. The plates were read on a Thermo Multiscan FC at 450 nM (see FIG. 6F).

[5] = target: T5, Recombinant Human PD-L1/CD274 Protein (hPD-L1-his) (human, UniProt Q9NZQ7 19-238); assay: ELISA, purified mouse antibody on coated hPD-L1-his
T5 construct: range 19-238; ACRO Biosystem PD1-H5229, made in HEK293; also called human PD-L1-his; hPD-L-his
Method: High-binding clear polystyrene 96 well plates (Nunc) were coated with 100 μl/well of a 0.5 μg/ml hPD-L1-his in high pH coating buffer and incubated overnight 4° C. Then plates were washed once on an automatic plate washer using washing buffer (PBS+0.1% Tween 20 (Sigma)). 200 μl of blocking buffer (PBS+1% BSA+1% normal goat serum+0.05% Tween-20) was added to each well and incubated 2 hours at room temp. Then add serially diluted purified antibodies with dilution buffer (PBS+1% BSA+1% normal goat serum+0.01% Tween-20) and incubate for 1 hour at RT. The plates were then washed 3 times using the method described above. 100 μl/well of a solution of HRP conjugated goat anti-mouse Fc antibody (Abcam) in dilution buffer was then added to each well of the plate. After that the ELISA plates were allowed to incubate for 60 min at RT then plates were washed 3 times with 250 μl/well washing buffer. Finally, 100 μl/well of TMB was added to each well and was terminated using 0.64M H₂SO₄. The plates were read on a Thermo Multiscan FC at 450 nM (see FIG. 3).

hPD-L2-Fc = target: T6, hPD-L2-Fc (human, UniProt Q9BQ51 20-219); assay: ELISA, plate coated with hPD-L2-Fc
T6 construct: Acrobiosystems PD2-H5251; also called human PD-L2 protein; not shown: Fc tag
T6 sequence (looked up): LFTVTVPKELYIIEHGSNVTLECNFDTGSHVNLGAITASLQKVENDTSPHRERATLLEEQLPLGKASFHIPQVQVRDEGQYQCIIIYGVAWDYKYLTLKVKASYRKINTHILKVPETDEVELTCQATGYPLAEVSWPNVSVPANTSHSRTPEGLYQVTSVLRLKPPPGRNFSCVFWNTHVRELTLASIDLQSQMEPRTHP
Method: Briefly, high-binding clear polystyrene 96 well plates (Nunc) were coated with 100 μl/well of a 0.5 μg/ml human PD-L1-Fc (Acrobiosystems, Cat #PD1-H5258) or 100 μl/well of a 1 μg/ml hPD-L2-Fc (Acrobiosystems, Cat #PD2-H5251), respectively, in high pH coating buffer (0.16% Na2CO3+0.3% NaHCO₃, pH 9.8) and incubated overnight at 4° C. Then the plates were washed once on an automatic plate washer using washing buffer (PBS+0.1% Tween 20 (Amresco)). 200 μl of blocking buffer (PBS+1% BSA+1% normal goat serum+0.05% Tween-20) was added to each well and incubated for 2 hours at room temp. Then add 100 μl 2 μg/ml purified PD-L1 antibodies with dilution buffer (PBS+1% BSA+1% normal goat serum+0.01% Tween-20) and incubate for 1 hour at RT. The plates were then washed 3 times with washing buffer. 100 μl/well of a solution of HRP conjugated goat anti-mouse IgG antibody (1:20000, Abcam) in dilution buffer was then added to each well of the plate. After that the ELISA plates were allowed to incubate for 60 min at RT then the plates were washed 3 times with 250 μl/well washing buffer. Finally, 100 μl/well of TMB was added to each well for 15 min and the reaction was terminated using 50 ul/well of 0.16 M/L sulfuric acid. The plates were read on a Thermo Multiscan FC at 450 nM (see FIG. 6G).

T2 sequence (chain, as listed by the source E58A E58A limits assumed): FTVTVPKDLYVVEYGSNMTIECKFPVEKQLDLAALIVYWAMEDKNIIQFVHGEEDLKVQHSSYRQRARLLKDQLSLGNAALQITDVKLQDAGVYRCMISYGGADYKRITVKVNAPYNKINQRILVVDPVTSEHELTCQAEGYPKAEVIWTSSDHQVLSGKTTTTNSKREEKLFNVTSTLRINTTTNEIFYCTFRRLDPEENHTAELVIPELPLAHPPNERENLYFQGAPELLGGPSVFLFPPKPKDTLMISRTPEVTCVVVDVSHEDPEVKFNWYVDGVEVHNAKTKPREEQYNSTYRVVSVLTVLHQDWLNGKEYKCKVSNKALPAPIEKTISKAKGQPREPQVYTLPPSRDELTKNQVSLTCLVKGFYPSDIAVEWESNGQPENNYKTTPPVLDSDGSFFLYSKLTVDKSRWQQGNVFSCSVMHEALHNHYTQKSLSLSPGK
T1 sequence (chain, as listed by the source limits assumed): as the sequence (chain, as listed by the source E58A E58A limits assumed) above, with A40E counted along it
T3 sequence (Q9NZQ7 19-238 limits assumed): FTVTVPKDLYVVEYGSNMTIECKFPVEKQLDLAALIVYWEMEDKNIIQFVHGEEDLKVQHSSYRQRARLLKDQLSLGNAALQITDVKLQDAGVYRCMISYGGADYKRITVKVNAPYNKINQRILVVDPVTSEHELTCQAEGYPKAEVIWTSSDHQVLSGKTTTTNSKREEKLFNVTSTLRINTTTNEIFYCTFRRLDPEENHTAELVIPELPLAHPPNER
T5 sequence (Q9NZQ7 other isoform, or with tags, fused parts or gaps limits assumed): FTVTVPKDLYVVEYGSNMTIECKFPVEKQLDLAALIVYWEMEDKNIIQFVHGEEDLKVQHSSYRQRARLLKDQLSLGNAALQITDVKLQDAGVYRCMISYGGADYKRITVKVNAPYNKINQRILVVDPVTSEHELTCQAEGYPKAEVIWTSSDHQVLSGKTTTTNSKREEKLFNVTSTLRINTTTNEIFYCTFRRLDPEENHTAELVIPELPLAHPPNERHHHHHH
T4 sequence (Q9EP73 other isoform, or with tags, fused parts or gaps limits assumed): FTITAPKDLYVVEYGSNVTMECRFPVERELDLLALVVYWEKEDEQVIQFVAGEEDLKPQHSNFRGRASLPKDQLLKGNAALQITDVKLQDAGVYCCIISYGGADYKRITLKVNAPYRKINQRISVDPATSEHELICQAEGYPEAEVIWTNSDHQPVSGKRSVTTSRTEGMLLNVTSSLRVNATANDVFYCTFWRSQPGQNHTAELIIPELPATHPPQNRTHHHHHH

Mean OD450 [1]: 1.53 OD450
OD450 nM of sample-1 [1]: 1.39 OD450
OD450 nM of sample-2 [1]: 1.68 OD450
% of binding of Ab to E58A mutant vs. that to WT PD-L1 [2]: 60.6%
Mean OD450 [2]: 0.93 OD450
OD450 nM of sample-1 [2]: 1.18 OD450
OD450 nM of sample-2 [2]: 0.678 OD450
IC50 (read off the curve) [3]: ~0.02 µg/mL
binding result [4]: no binding (tested: 20 ug/ml)
EC50 (read off the curve) [5]: ~0.003 µg/mL
binding result (hPD-L2-Fc): no binding (tested: 2 ug/ml)
B1: 26F5 (antibody, V domains shown)
VH: QVQLQQPGAELVKPGASVKLSCKASGYTFPSYWMHWMKQRPGQGLEWIGMIQPSTSGTIYNERFKNQVTLTVDKSSSTAYMQLSSQTSEDSAVYYCARGTGTVDYFDYWGQGTTLTVSS
VL: DIVLTQSPASLAVSLGQRATISCRASESVDSYGNSFIHWYQQKPGQPPKLLIHRASNLESGIPATFSGSGSRTDFTLTINPVEADDVATYYCQQSKEDPYTFGGGTKLEIK
notes: Mouse monoclonal from hybridoma; also called mouse monoclonal antibody 26F5
